From PMC7972864 (2021)

Columns and labels:
[1] = molecular target: T1, rhKeap1^R415A+Y525A+ (residue 321-609 aa) (human, UniProt Q14145 321-609, R415A | Y525A, biotinylated (site not stated)); test: BLI
[2] = molecular target: T1, rhKeap1^R415A+Y525A+ (residue 321-609 …); test: BLI; remark: listed apart in the source

T1 sequence (Q14145 321-609 R415A/Y525A): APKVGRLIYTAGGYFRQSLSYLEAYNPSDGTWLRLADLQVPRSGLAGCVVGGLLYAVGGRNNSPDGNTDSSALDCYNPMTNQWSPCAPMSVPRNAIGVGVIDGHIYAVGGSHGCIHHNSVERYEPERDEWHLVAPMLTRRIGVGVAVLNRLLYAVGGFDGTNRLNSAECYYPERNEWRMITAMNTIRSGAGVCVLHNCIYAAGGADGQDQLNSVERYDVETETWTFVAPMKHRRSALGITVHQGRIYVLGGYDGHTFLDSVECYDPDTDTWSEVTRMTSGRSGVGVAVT

koff [1]: 0.00262 s⁻¹
Kd [2]: 107 nM
B1: human Nrf2 protein (natural protein)
chain: MMDLELPPPGLPSQQDMDLIDILWRQDIDLGVSREVFDFSQRRKEYELEKQKKLEKERQEQLQKEQEKAFFAQLQLDEETGEFLPIQPAQHIQSETSGSANYSQVAHIPKSDALYFDDCMQLLAQTFPFVDDNEVSSATFQSLVPDIPGHIESPVFIATNQAQSPETSVAQVAPVDLDGMQQDIEQVWEELLSIPELQCLNIENDKLVETTMVPSPEAKLTEVDNYHFYSSIPSMEKEVGNCSPHFLNAFEDSFSSILSTEDPNQLTVNSLNSDATVNTDFGDEFYSAFIAEPSISNSMPSPATLSHSLSELLNGPIDVSDLSLCKAFNQNHPESTAEFNDSDSGISLNTSPSVASPEHSVESSSYGDTLLGLSDSEVEELDSAPGSVKQNGPKTPVHSSGDMVQPLSPSQGQSTHVHDAQCENTPEKELPVSPGHRKTPFTKDKHSSRLEAHLTRDELRAKALHIPFPVEKIINLPVVDFNEMMSKEQFNEAQLALIRDIRRRGKNKVAAQNCRKRKLENIVELEQDLDHLKDEKEKLLKEKGENDKSLHLLKKQLSTLYLEVFSMLRDEDGKPYSPSEYSLQQTRDGNVFLVPKSKKPDVKKN
